Entries after “also recorded” stand apart in the source; their conditions may differ.
B1: KGF: keratinocyte growth factor used as differentiation factor in culture medium (protein, UniProt P21781 32-194, looked up)
Fibroblast growth factor 7: CNDMTPEQMATNVNCSSPERHTRSYDYMEGGDIRVRRLFCRTQWYLRIDKRGKVKGTQEMKNNYNIMEIRTVAVGIVAIKGVESEFYLAMNKEGKLYAKKECNEDCNFKELILENHYNTYASAKWTHNGGEMFVALNQKGIPVRGKKTKKEQKTAHFLPMAIT

Tests used:
Type in all cases: cell-based, human
SR1423 cells [1] = assay: Glucagon added to the culture media during differentiation
Method: A second batch of SR1423 cells were seeded at 6.3×10^4 as described above and allowed to grow for 18-24 hours. […]

[2] = test system: embryonic stem cell line BGO1V; assay: Impact of KGF at earlier stages of differentiation, BGO1V
SR1423 cells [3] = assay: Impact of KGF at earlier stages of differentiation, SR1423; details: KGF at earlier stages of differentiation (early endoderm)
Method: Differentiation: A first batch of SR1423 cells were seeded at 2.3×10^4 cells/cm^2 and allowed to grow for 18-24 hours. Cells were then washed with dPBS (—Mg^2+/—Ca^2+) and medium was changed following a 28 day schedule comprised of 6 media formulation as follows: Days 1, 2, 3: DMEM/F-12 medium (Life Technologies #10565018), 0.2% HSA, 1XB27 supplement (Life Technologies #A1486701), 100 ng/ml Activin A and 1 uM Wortmannin; Days 4, 5, 6, 7: DMEM (Life Technologies #10567014), 0.2% HSA, 1XB27 supplement, 4 uM Retinoic Acid, 50 ng/ml KGF, 50 ng/ml Noggin, 0.25 uM Cyclopamine KAAD; Days 8, 10: DMEM, 0.2% HSA, 1XB27 supplement, 50 ng/ml KGF, 50 ng/ml Noggin, 50 ng/ml EGF; Days 12, 14: DMEM, 0.2% HSA, 1XB27 supplement, 50 ng/ml Noggin, 50 ng/ml EGF, 1 uM γ-secretase inhibitor XXI, 10 uM Alk5i II, 1 uM T3; Days 16, 18: DMEM, 0.2% HSA, 1XB27 supplement, 10 uM Alk5i II, 1 uM T3, 100 nM Retinoic Acid; Days 20, 22, 24, 26, 28: CMRL (Life Technologies #11530037), 0.2% HSA, 1× B27 supplement, 1× glutamax (Life Technologies # 35050061), 10 uM Alk5i II, 1 uM T3, 10 mM Nicotinamide, 50 ng/ml IGF-I, 10 ng/ml BMP4. For differentiations with the addition of a second stage employing KGF, medium on days 4, 5, 6 with DMEM, 0.2% BSA, 1XB27 supplement, and 50 ng/ml KGF was inserted into the schedule shifting the remaining stages three days later. […]

| Molecule | amount of cells that co-express insulin and glucagon (SR1423 cells [1]) | production of pancreatic and insulin-producing cells [2] | production of pancreatic and insulin-producing cells (SR1423 cells [3]) |
| --- | --- | --- | --- |
| glucagon: peptide hormone added to the sixth differentiation medium | reducing the amount of cells that co-express insulin and glucagon; also recorded: reduces the amount of cells that co-express insulin and glucagon |  |  |
| B1 |  | matching results | marked reduction |

Reference: patent US11484554B2, “Pancreatic cells for treating diabetes and methods of generating the same” (Seraxis, Inc., priority 2018, dated 2022)
